Experimental data as given in patent US20260193366A1 (APOGEE THERAPEUTICS, published 2026).

Tests used:
[1] = target: T1, human IL-4Rα (human, UniProt P24394 26-232); assay: SPR, Carterra LSA;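 note: antibodies captured on an anti-human Fc sensor chip, antigen injected at several concentrations, association and dissociation rates fitted with a 1:1 Langmuir model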
T1 construct: also called Hu IL-4Rα; hIL-4Rα
T1 sequence: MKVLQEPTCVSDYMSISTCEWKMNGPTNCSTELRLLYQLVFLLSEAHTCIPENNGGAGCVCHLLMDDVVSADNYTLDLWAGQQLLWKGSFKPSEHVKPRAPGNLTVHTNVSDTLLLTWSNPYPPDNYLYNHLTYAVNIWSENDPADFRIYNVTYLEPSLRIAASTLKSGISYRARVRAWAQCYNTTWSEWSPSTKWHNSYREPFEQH
Method: (§1) Binding affinity (KD) of antibodies to human and cynomolgus monkey IL-4Rα was determined through surface plasmon resonance (SPR) using a Carterra LSA. Briefly, an HC30M sensor chip that was previously functionalized with a polyclonal mixture of goat anti-human Fc antibody and used to capture purified antibodies at a level between 100-1000 RLU. […] Regeneration of the chip between different concentrations of antigen was performed with 200 mM phosphoric acid and antibody was captured again as previously described. Association and dissociation rate constants were subsequently determined through fitting to a 1:1 Langmuir binding model using the Kinetics Software from Carterra from which a KD value was derived.

[2] = target: T2, cynomolgus monkey IL-4Rα (cynomolgus monkey, UniProt P24394 26-231 (human entry), limits assumed); assay: SPR, Carterra LSA;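 note: antibodies captured on an anti-human Fc sensor chip, antigen injected at several concentrations, association and dissociation rates fitted with a 1:1 Langmuir model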
T2 construct: also called Cyno IL-4Rα; cyIL-4Rα
T2 chain: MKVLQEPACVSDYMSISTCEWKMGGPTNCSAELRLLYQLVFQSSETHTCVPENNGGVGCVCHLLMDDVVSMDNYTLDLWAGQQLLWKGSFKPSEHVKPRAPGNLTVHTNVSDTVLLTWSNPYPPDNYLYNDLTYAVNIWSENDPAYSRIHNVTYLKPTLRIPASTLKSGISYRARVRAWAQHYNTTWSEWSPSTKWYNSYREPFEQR
Method: as §1

[3] = target: T3, hIL-4Rα on cells (human, UniProt P24394 26-825); assay: cell-based or functional assay
T3 sequence: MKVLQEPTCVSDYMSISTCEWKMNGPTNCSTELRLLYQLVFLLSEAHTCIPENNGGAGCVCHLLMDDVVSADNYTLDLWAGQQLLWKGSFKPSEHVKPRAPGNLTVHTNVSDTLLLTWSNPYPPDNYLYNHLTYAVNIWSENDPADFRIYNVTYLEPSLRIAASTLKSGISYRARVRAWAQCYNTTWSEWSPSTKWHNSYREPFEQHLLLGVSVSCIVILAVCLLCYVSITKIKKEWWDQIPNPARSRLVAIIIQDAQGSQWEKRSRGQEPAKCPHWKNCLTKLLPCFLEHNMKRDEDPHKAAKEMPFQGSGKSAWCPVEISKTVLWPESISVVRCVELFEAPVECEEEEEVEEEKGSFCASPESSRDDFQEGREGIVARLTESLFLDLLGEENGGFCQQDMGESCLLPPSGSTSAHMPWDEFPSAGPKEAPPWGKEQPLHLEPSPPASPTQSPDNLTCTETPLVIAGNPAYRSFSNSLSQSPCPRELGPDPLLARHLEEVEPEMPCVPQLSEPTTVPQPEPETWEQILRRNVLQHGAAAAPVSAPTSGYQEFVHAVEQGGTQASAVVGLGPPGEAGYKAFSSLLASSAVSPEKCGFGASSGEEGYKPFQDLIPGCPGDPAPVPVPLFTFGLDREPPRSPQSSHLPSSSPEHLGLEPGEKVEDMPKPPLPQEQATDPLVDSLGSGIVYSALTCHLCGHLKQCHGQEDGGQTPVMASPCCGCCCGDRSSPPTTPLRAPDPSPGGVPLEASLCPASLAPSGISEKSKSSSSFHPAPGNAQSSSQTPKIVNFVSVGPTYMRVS

[4] = target: T3, hIL-4Rα on cells; assay: cell-based or functional assay; remark: listed apart in the source
[5] = target: T3, hIL-4Rα on cells; assay: cell-based or functional assay; remark: listed apart in the source
[6] = target: T3, hIL-4Rα on cells; assay: FACS on HEK293 cells, competitor biotin-hIL-4;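 note: HEK293 cells stably co-expressing hIL-13Rα and hIL-4Rα, stained for 1 h at 4 °C, read-out as mean fluorescence intensity by flow cytometry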
[7] = target: T3, hIL-4Rα on cells; assay: FACS on HEK293 cells, competitor biotin-hIL-13;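 note: stably transduced cells co-expressing both receptor chains, stained cold, with cell-bound signal read as mean fluorescence intensity by flow cytometry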

B1: Construct 8 (mAb417) (antibody, IgG4, V domains shown)
VH: EVQLVESGGGLEQPGGSLRLSCAGSGFTFRDFAMTWVRQAPGKGLEWVSSISGSGDNIYYADSVKGRFTISRDNSKNTLYLQMNSLRAEDTAVYYCAKDRLSVTVRPRYYGLDVWGQGTTVTVSS
VL: DIVMTQSPLSLPVTPGEPASISCRSTQSLLYSIGKNYVDWYLQKSGQSPQLLIYLGNNRATGVPDRFSGSGSGTDFTLKISRVEAEDVGFYYCMQALTTPYAFGQGTKLEIK
notes: VH/VL only
KD Relative to Dupilumab [1]: 0.83
Kd [1]: 0.0094 nM
KD Relative to Dupilumab [2]: 0.25
Kd [2]: 157 nM
Relative Inhibition of IL-4 induced pSTAT6 IC50 [3]: 1.01 relative to dupilumab
Relative Inhibition of IL-13 induced pSTAT6 IC50 [3]: 2.1 relative to dupilumab
Relative Inhibition of IL-4 induced TARC IC50 [4]: 1.11 relative to dupilumab
Relative Inhibition of IL-13 induced TARC IC50 [4]: 1.05 relative to dupilumab
Relative Inhibition of IL-4 induced TF-1 Proliferation IC50 [5]: 0.734 relative to dupilumab
Relative Inhibition of IL-13 induced TF-1 Proliferation IC50 [5]: 1.47 relative to dupilumab
Relative Blockade of IL-4 Binding IC50 [6]: 1.01 relative to dupilumab
Relative Blockade of IL-13 Binding IC50 [7]: 0.953 relative to dupilumab

B2: Construct 16 (mAb424) (antibody, IgG4, V domains shown)
VH: EVQLVESGGGLEQPGGSLRLSCAGSGFTFRTYAMTWVRQAPGKGLEWVSSISGSGDNIYYADSVKGRFTISRDNSKNTLYLQMNSLRAEDTAVYYCAKDRLSVTIRPRYYGLDVWGQGTTVTVSS
VL: DIVMTQSPLSLPVTPGEPASISCTASQSLLYSIGYNYVDWYLQKSGQSPQLLIYLGNKRASGVPDRFSGSGSGTDFTLKISRVEAEDVGFYYCMQSLTSPYTFGQGTKLEIK
notes: VH/VL only
KD Relative to Dupilumab [1]: 1.4
Kd [1]: 0.0158 nM
KD Relative to Dupilumab [2]: 0.14
Kd [2]: 89.3 nM
Relative Inhibition of IL-4 induced pSTAT6 IC50 [3]: 0.825 relative to dupilumab
Relative Inhibition of IL-13 induced pSTAT6 IC50 [3]: 1.41 relative to dupilumab
Relative Inhibition of IL-4 induced TARC IC50 [4]: 1.63 relative to dupilumab
Relative Inhibition of IL-13 induced TARC IC50 [4]: 1.03 relative to dupilumab
Relative Inhibition of IL-4 induced TF-1 Proliferation IC50 [5]: 1.04 relative to dupilumab
Relative Inhibition of IL-13 induced TF-1 Proliferation IC50 [5]: 1.44 relative to dupilumab
Relative Blockade of IL-4 Binding IC50 [6]: 0.895 relative to dupilumab
Relative Blockade of IL-13 Binding IC50 [7]: 0.904 relative to dupilumab

B3: Construct 12 (mAb421) (antibody, IgG4, V domains shown)
VH: EVQLVESGGGLEQPGGSLRLSCAGSGFTFRDFAMTWVRQAPGKGLEWVSSISGSGGNIYYADSVKGRFTISRDNSKNTLYLQMNSLRAEDTAVYYCAKDRLSKTIRPRYYGLDVWGQGTTVTVSS
VL: DIVMTQSPLSLPVTPGEPASISCRSSQSVLYSIGYNYVDWYLQKSGQSPQLLIYLGNKRASGVPDRFSGSGSGTDFTLKISRVEAEDVGFYYCMQSLTSPYTFGQGTKLEIK
notes: VH/VL only
KD Relative to Dupilumab [1]: 1.91
Kd [1]: 0.0215 nM
KD Relative to Dupilumab [2]: 0.02
Kd [2]: 15.1 nM
Relative Inhibition of IL-4 induced pSTAT6 IC50 [3]: 0.457 relative to dupilumab
Relative Inhibition of IL-13 induced pSTAT6 IC50 [3]: 0.672 relative to dupilumab
Relative Inhibition of IL-4 induced TARC IC50 [4]: 0.38 relative to dupilumab
Relative Inhibition of IL-13 induced TARC IC50 [4]: 0.521 relative to dupilumab
Relative Inhibition of IL-4 induced TF-1 Proliferation IC50 [5]: 0.526 relative to dupilumab
Relative Inhibition of IL-13 induced TF-1 Proliferation IC50 [5]: 0.87 relative to dupilumab
Relative Blockade of IL-4 Binding IC50 [6]: 1.07 relative to dupilumab
Relative Blockade of IL-13 Binding IC50 [7]: 0.921 relative to dupilumab

B4: Construct 17 (mAb425) (antibody, IgG4, V domains shown)
VH: EVQLVESGGGLEQPGGSLRLSCAGSGFTFRDFAMTWVRQAPGKGLEWVSSISGSGSSTYYADSVKGRFTISRDNSKNTLYLQMNSLRAEDTAVYYCAKDRLSVTVRPRYYGLDVWGQGTTVTVSS
VL: DIVMTQSPLSLPVTPGEPASISCTASQSLLYSIGYNYVDWYLQKSGQSPQLLIYLGSKRASGVPDRFSGSGSGTDFTLKISRVEAEDVGFYYCMQAYNSPYTFGQGTKLEIK
notes: VH/VL only
KD Relative to Dupilumab [1]: 1.49
Kd [1]: 0.0169 nM
KD Relative to Dupilumab [2]: 0.09
Kd [2]: 58.3 nM
Relative Inhibition of IL-4 induced pSTAT6 IC50 [3]: 0.876 relative to dupilumab
Relative Inhibition of IL-13 induced pSTAT6 IC50 [3]: 0.863 relative to dupilumab
Relative Inhibition of IL-4 induced TARC IC50 [4]: 0.491 relative to dupilumab
Relative Inhibition of IL-13 induced TARC IC50 [4]: 0.789 relative to dupilumab
Relative Inhibition of IL-4 induced TF-1 Proliferation IC50 [5]: 0.729 relative to dupilumab
Relative Inhibition of IL-13 induced TF-1 Proliferation IC50 [5]: 0.844 relative to dupilumab
Relative Blockade of IL-4 Binding IC50 [6]: 1.11 relative to dupilumab
Relative Blockade of IL-13 Binding IC50 [7]: 1.17 relative to dupilumab

B5: Construct 9 (mAb418) (antibody, IgG4, V domains shown)
VH: EVQLVESGGGLEQPGGSLRLSCAGSGFTFTDFAMTWVRQAPGKGLEWVSSISGSGGNIYYADSVKGRFTISRDNSKNTLYLQMNSLRAEDTAVYYCAKDRLSVTVRPRYYGLDVWGQGTTVTVSS
VL: DIVMTQSPLSLPVTPGEPASISCRSSQSLLYSIGKNYVDWYLQKSGQSPQLLIYLGNNRATGVPDRFSGSGSGTDFTLKISRVEAEDVGFYYCMQALGSPYTFGQGTKLEIK
notes: VH/VL only
KD Relative to Dupilumab [1]: 0.76
Kd [1]: 0.00862 nM
KD Relative to Dupilumab [2]: 0.36
Kd [2]: 228 nM
Relative Inhibition of IL-4 induced pSTAT6 IC50 [3]: 0.761 relative to dupilumab
Relative Inhibition of IL-13 induced pSTAT6 IC50 [3]: 1.31 relative to dupilumab
Relative Inhibition of IL-4 induced TARC IC50 [4]: 0.593 relative to dupilumab
Relative Inhibition of IL-13 induced TARC IC50 [4]: 0.942 relative to dupilumab
Relative Inhibition of IL-4 induced TF-1 Proliferation IC50 [5]: 0.503 relative to dupilumab
Relative Inhibition of IL-13 induced TF-1 Proliferation IC50 [5]: 1.34 relative to dupilumab
Relative Blockade of IL-4 Binding IC50 [6]: 0.757 relative to dupilumab
Relative Blockade of IL-13 Binding IC50 [7]: 0.911 relative to dupilumab

B6: Construct 10 (mAb419) (antibody, IgG4, V domains shown)
VH: EVQLVESGGGLEQPGGSLRLSCAGSGFTFRDFAMTWVRQAPGKGLEWVSSISGDGSNTYYADSVKGRFTISRDNSKNTLYLQMNSLRAEDTAVYYCAKDRLSKTIRPRYYGLDVWGQGTTVTVSS
VL: DIVMTQSPLSLPVTPGEPASISCRSSQSLLYSIGYNYVDWYLQKSGQSPQLLIYLGNKRASGVPDRFSGSGSGTDFTLKISRVEAEDVGFYYCMQALGSPYTFGQGTKLEIK
notes: VH/VL only
KD Relative to Dupilumab [1]: 1.1
Kd [1]: 0.0125 nM
KD Relative to Dupilumab [2]: 0.18
Kd [2]: 114 nM
Relative Inhibition of IL-4 induced pSTAT6 IC50 [3]: 0.599 relative to dupilumab
Relative Inhibition of IL-13 induced pSTAT6 IC50 [3]: 1.38 relative to dupilumab
Relative Inhibition of IL-4 induced TARC IC50 [4]: 0.556 relative to dupilumab
Relative Inhibition of IL-13 induced TARC IC50 [4]: 0.856 relative to dupilumab
Relative Inhibition of IL-4 induced TF-1 Proliferation IC50 [5]: 0.431 relative to dupilumab
Relative Inhibition of IL-13 induced TF-1 Proliferation IC50 [5]: 1.39 relative to dupilumab
Relative Blockade of IL-4 Binding IC50 [6]: 0.992 relative to dupilumab
Relative Blockade of IL-13 Binding IC50 [7]: 0.922 relative to dupilumab

B7: Construct 11 (mAb420) (antibody, IgG4, V domains shown)
VH: EVQLVESGGGLEQPGGSLRLSCAGSGFTFRDFAMTWVRQAPGKGLEWVSSISGDGSNTYYADSVKGRFTISRDNSKNTLYLQMNSLRAEDTAVYYCAKDRLSKTIRPRYYGLDVWGQGTTVTVSS
VL: DIVMTQSPLSLPVTPGEPASISCRSSQSVLYSIGYNYVDWYLQKSGQSPQLLIYLGNKRASGVPDRFSGSGSGTDFTLKISRVEAEDVGFYYCMQSLQTPYTFGQGTKLEIK
notes: VH/VL only
KD Relative to Dupilumab [1]: 1.17
Kd [1]: 0.0132 nM
KD Relative to Dupilumab [2]: 0.15
Kd [2]: 92.2 nM
Relative Inhibition of IL-4 induced pSTAT6 IC50 [3]: 0.638 relative to dupilumab
Relative Inhibition of IL-13 induced pSTAT6 IC50 [3]: 0.924 relative to dupilumab
Relative Inhibition of IL-4 induced TARC IC50 [4]: 0.609 relative to dupilumab
Relative Inhibition of IL-13 induced TARC IC50 [4]: 0.877 relative to dupilumab
Relative Inhibition of IL-4 induced TF-1 Proliferation IC50 [5]: 0.455 relative to dupilumab
Relative Inhibition of IL-13 induced TF-1 Proliferation IC50 [5]: 1.72 relative to dupilumab
Relative Blockade of IL-4 Binding IC50 [6]: 0.977 relative to dupilumab
Relative Blockade of IL-13 Binding IC50 [7]: 0.928 relative to dupilumab
